From patent US20240425606A1, “ANTI-IL-11RA ANTIBODIES” (Lassen Therapeutics 1, Inc., priority 2021, published 2024) come the findings set out here.

B1: mAb21 (antibody, human IgG4, V domains shown)
VH: EVQLLESGGGLVQPGGSLRLSCAASGFTFSHYSMTWVRQAPGKGLEWVSSIVPYGDLTQYADSVKGRFTISRDNSKNTLYLQMNSLRAEDTAVYYCAKGPGWGSFDLWGRGTLVTVSS
VL: DIQMTQSPSSLSASVGDRVTITCQASQDINNYLNWYQQKPGKAPKLLIYDASNLQTGVPSRFSGSGSGTDFTFTISSLQPEDIATYYCQQHESQSPTFGPGTKVDIK
notes: Expressed as human IgG4 (S228P EU)
B2: mAb29 (antibody, human IgG4, V domains shown)
VH: B1 VH with H31S
VL: B1 VL
notes: as for B1
B3: mAb31 (antibody, human IgG4, V domains shown)
VH: B1 VH with H31V
VL: B1 VL
notes: as for B1
B4: mAb23 (antibody, human IgG4, V domains shown)
VH: B1 VH with H31K
VL: B1 VL
notes: as for B1
B5: mAb26: anti-IL-11Rα antibody; VH SEQ ID NO: 243, VL SEQ ID NO: 244; heavy chain Kabat position 31 variant of mAb5 (antibody, V domains shown)
VH: B1 VH with H31N
VL: B1 VL
modifications: mAb23 VH Chain; mAb26 VL Chaim
notes: anti-IL-11Rα antibody; heavy chain Kabat position 31 variant of mAb5
B6: mAb18: anti-IL-11Rα antibody; VH SEQ ID NO: 227, VL SEQ ID NO: 228; heavy chain Kabat position 31 variant of mAb5 (antibody, V domains shown)
VH: B1 VH with H31E
VL: B1 VL
modifications: mAb18 VH Chain; mAb18 VL Chain
notes: as for B5
B7: mAb27: anti-IL-11Rα antibody; VH SEQ ID NO: 245, VL SEQ ID NO: 246; heavy chain Kabat position 31 variant of mAb5 (antibody, V domains shown)
VH: B1 VH with H31P
VL: B1 VL
modifications: mAb27 VH Chain; mAb27 VL Chain
notes: as for B5
B8: mAb25: anti-IL-11Rα antibody; VH SEQ ID NO: 241, VL SEQ ID NO: 242; heavy chain Kabat position 31 variant of mAb5 (antibody, V domains shown)
VH: B1 VH with H31M
VL: B1 VL
modifications: mAb25 VH Chain; mAb25 VL Chain
notes: as for B5
B9: mAb28: anti-IL-11Rα antibody; VH SEQ ID NO: 247, VL SEQ ID NO: 248; heavy chain Kabat position 31 variant of mAb5 (antibody, V domains shown)
VH: B1 VH with H31R
VL: B1 VL
modifications: mAb28 VH Chain; mAb28 VL Chain
notes: as for B5
B10: mAb20: anti-IL-11Rα antibody; VH SEQ ID NO: 231, VL SEQ ID NO: 232; heavy chain Kabat position 31 variant of mAb5 (antibody, V domains shown)
VH: B1 VH with H31G
VL: B1 VL
modifications: mAb20 VH Chain; mAb20 VL Chain
notes: as for B5
B11: mAb24: anti-IL-11Rα antibody; VH SEQ ID NO: 239, VL SEQ ID NO: 240; heavy chain Kabat position 31 variant of mAb5 (antibody, V domains shown)
VH: B1 VH with H31L
VL: B1 VL
modifications: mAb24 VH Chain; mAb24 VL Chain
notes: as for B5
B12: mAb30: anti-IL-11Rα antibody; VH SEQ ID NO: 251, VL SEQ ID NO: 252; heavy chain Kabat position 31 variant of mAb5 (antibody, V domains shown)
VH: B1 VH with H31T
VL: B1 VL
modifications: mAb30 VH Chain; mAb30 VL Chain
notes: as for B5
B13: mAb22: anti-IL-11Rα antibody; VH SEQ ID NO: 235, VL SEQ ID NO: 236; heavy chain Kabat position 31 variant of mAb5 (antibody, V domains shown)
VH: B1 VH with H31I
VL: B1 VL
modifications: mAb22 VH Chain; mAb22 VL Chain
notes: as for B5
B14: mAb16: anti-IL-11Rα antibody; VH SEQ ID NO: 223, VL SEQ ID NO: 224; heavy chain Kabat position 31 variant of mAb5 (antibody, V domains shown)
VH: B1 VH with H31A
VL: B1 VL
modifications: mAb16 VH Chain; mAb16 VL Chain
notes: as for B5
B15: mAb19: anti-IL-11Rα antibody; VH SEQ ID NO: 229, VL SEQ ID NO: 230; heavy chain Kabat position 31 variant of mAb5 (antibody, V domains shown)
VH: B1 VH with H31F
VL: B1 VL
modifications: mAb19 VH Chain; mAb19 VL Chain
notes: as for B5
B16: mAb32: anti-IL-11Rα antibody; VH SEQ ID NO: 255, VL SEQ ID NO: 256; heavy chain Kabat position 31 variant of mAb5 (antibody, V domains shown)
VH: B1 VH with H31Y
VL: B1 VL
modifications: mAb32 VH Chain; mAb32 VL Chain
notes: as for B5
B17: mAb17: anti-IL-11Rα antibody; VH SEQ ID NO: 225, VL SEQ ID NO: 226; heavy chain Kabat position 31 variant of mAb5 (antibody, V domains shown)
VH: B1 VH with H31D
VL: B1 VL
modifications: mAb17 VH Chain; mAb17 VL Chain
notes: as for B5

Numbering of substitutions follows the chain as printed. Names and notes keep the numbering of the source. Where only a bound is given, the exact number is not on record here.

Usually Kd stands for the free concentration of one partner at which half of the binding sites on the other are occupied at equilibrium, for simple one-to-one binding. Low readings indicate tighter binding, high ones weaker binding. As usually defined, the kon is a measure of how fast the partners come together. The low end stands for slow association, the high end for fast association. The koff is the first-order rate constant of dissociation. A high value points to a short-lived complex.

One assay deals with T1, human IL-11Rα (human, UniProt Q14626 23-363, limits assumed).
T1 construct: Protein coated on ELISA plates and used in solution for BLI; also called hIL-11Rα; hIL-11R
T1 sequence: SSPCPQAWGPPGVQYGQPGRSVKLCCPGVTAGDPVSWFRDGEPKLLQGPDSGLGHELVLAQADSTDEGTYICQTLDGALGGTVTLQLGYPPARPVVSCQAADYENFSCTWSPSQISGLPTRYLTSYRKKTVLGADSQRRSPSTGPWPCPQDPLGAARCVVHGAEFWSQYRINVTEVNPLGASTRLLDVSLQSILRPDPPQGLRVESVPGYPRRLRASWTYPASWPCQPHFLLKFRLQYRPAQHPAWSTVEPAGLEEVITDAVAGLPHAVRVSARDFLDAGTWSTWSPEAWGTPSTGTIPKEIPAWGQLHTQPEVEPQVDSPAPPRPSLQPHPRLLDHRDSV
The experiment in a line: BLI (Octet RED96e), mAb on anti-human constant domain (AHC) biosensors, hIL-11R in solution.
Settings: not given
The source says:
(§1) A further series of antibodies were designed in which the residue at Kabat position 31 of the heavy chain was varied (mAbs 16-32). In this case an alternate biolayer interferometry assay was used to initially rank the antibodies compared to mAb5, the closest relative in sequence to mAbs 16-32. MAbs were loaded onto anti-human constant domain (AHC) biosensors (FortdBio) in 10× kinetics buffer consisting of PBS, 0.1% BSA, 0.02% Tween 20 for 120 s to achieve a spectral shift value of 0.8 to 1.2 nm. Association was carried out in the presence of 2-fold dilution series of hIL-1 IR and was allowed to proceed for 120 s. Dilution series started 10 nM. The dissociation in 10× kinetics buffer for 1200 s. Binding kinetic measurements were taken on an Octet RED96e instrument.
In general terms: Biolayer interferometry detects binding as a change in optical thickness at a sensor tip.
Molecule B1 had a Kd of less than 0.03 nM and a kon of 750000 M⁻¹ s⁻¹.

B2 yielded a Kd of 0.03 nM, a koff of 1.8e-05 s⁻¹ and a kon of 610000 M⁻¹ s⁻¹.

B3 yielded a Kd of less than 0.03 nM and a kon of 690000 M⁻¹ s⁻¹.

Take B4: the Kd is less than 0.03 nM and the kon was determined as 720000 M⁻¹ s⁻¹.

A further assay deals with T2, hIL-1 IR (Homo sapiens, UniProt Q14626).
T2 sequence (Q14626 23-422): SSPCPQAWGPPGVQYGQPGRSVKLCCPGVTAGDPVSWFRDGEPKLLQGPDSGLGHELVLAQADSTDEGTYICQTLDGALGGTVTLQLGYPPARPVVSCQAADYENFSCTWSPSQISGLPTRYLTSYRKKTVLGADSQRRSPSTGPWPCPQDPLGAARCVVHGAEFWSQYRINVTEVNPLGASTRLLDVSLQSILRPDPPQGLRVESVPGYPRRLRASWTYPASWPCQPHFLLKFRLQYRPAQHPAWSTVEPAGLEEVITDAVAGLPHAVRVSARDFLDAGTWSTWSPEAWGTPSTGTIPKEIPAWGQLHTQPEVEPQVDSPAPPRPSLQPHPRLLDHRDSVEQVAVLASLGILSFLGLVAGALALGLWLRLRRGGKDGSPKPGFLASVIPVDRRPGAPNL
Kind of assay: Alternate biolayer interferometry assay (AHC biosensors) ranking mAbs 16-32 against mAb5. In kind it is binding. As to conditions: compared to mAb5.
Excerpt: as §1
On to B5, for which the qualitative assessment entry is recorded as “decreased”.

As to B6, the qualitative assessment result is given as “decreased”.

Consider B7, for which the qualitative assessment entry is listed as “decreased”.

For the molecule B8, the qualitative assessment result is given as “similar”.

With B9, the qualitative assessment result is recorded as “similar”.

For the molecule B10, the qualitative assessment result is given as “similar”.

Turning to B11, the qualitative assessment result was “similar”.

Regarding B12, the qualitative assessment entry is given as “decreased”.

B13: the qualitative assessment result is listed as “similar”.

In the case of B14, the qualitative assessment entry is “similar”.

As to B15, the qualitative assessment result is “similar”.

As for B16, the qualitative assessment entry was “similar”.

Regarding B17, the qualitative assessment entry is given as “decreased”.
